Where “and” joins values, the source holds several entries; their conditions need not be identical. Equal values may be shown once.

Sequence of Ovotransferrin (TRFE_CHICK), not hydrolysed and not digested (P02789 20-705 limits assumed): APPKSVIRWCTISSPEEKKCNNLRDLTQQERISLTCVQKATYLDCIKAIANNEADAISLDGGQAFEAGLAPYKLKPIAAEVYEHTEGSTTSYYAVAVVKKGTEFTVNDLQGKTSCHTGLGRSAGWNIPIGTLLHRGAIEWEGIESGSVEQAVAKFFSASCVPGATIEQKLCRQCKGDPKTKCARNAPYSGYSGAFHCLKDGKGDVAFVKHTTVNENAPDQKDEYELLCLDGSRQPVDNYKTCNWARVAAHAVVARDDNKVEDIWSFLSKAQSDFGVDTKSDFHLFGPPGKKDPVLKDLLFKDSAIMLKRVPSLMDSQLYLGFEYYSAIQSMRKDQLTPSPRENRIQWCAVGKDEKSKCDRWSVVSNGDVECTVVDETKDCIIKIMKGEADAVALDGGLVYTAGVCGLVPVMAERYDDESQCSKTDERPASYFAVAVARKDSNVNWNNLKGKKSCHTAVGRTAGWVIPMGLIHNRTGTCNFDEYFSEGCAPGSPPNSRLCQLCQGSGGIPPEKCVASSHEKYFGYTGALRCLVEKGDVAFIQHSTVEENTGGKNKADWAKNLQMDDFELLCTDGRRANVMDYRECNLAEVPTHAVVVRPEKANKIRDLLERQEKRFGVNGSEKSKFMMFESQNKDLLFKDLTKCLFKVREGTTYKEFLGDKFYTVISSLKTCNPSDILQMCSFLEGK

In the first assay the target is Angiotensin-I Converting Enzyme. In words: cell-based or functional assay.
Take Egg White/Alcalase (LS 250903): the IC50 (mg/mL), ACE inhibition (Hip-His-Leu assay) is 0.46 mg/mL.

A further assay has as its target Angiotensin-I Converting Enzyme (ACE). In words: cell-based or functional assay.
Regarding Ovomucin/Alcalase hydrolysate, the ACE activity IC50; total hydrolysis time 11.5 hours (batch for animal study) is 230 µg/mL; the ACE inhibition (% inhibition) at 0.5 mg/ml is 56% and 57% and 55%; the ACE inhibition IC50; hydrolysis 4 h, 2% enzyme, DH 0% is above 2000 µg/mL; the ACE inhibition IC50; hydrolysis 5 h, 4% enzyme, DH 5.0% was determined as 760 µg/mL. Further, the ACE inhibition IC50; hydrolysis 5 h, 4% enzyme, DH 12.0 was found to be 540 µg/mL; the ACE inhibition IC50; hydrolysis 6 h, 4% enzyme, DH 7.7% was 660 µg/mL; the ACE inhibition IC50; hydrolysis 7 h, 6% enzyme, DH 12.9% was determined as 450 µg/mL; the ACE inhibition IC50; hydrolysis 7.5 h, 6% enzyme, DH 15.0% is 430 µg/mL. Besides, the ACE inhibition IC50; hydrolysis 8 h, 6% enzyme, DH 21.7 worked out at 390 µg/mL; the ACE inhibition IC50; hydrolysis 10.5 h, 8% enzyme, DH 21.2 came out at 250 µg/mL; the ACE inhibition IC50; hydrolysis 10.5 h, 8% enzyme, DH 23.9 is 210 µg/mL; the ACE inhibition IC50; hydrolysis 13.5 h, 10% enzyme, DH 22.0 was 180 µg/mL. For the same substance, the ACE inhibition IC50; hydrolysis 16.5 h, 12% enzyme, DH 21.1 worked out at 180 µg/mL; the inhibition (%) at 0.0625 mg/ml is 24% and 22%; the inhibition (%) at 0.125 mg/ml is 25.5% and 33.2%; the inhibition (%) at 0.25 mg/ml is 37.1% and 43.8%. The inhibition (%) at 0.5 mg/ml was 57.3% and 55.2%; the inhibition (%) at 1 mg/ml was 67.2% and 69.9%; the inhibition (%) at 2 mg/ml was 81.7% and 86%.
In the case of Ovomucin/Newlase F hydrolysate, the inhibition (%) at 0.0625 mg/ml was -13.7% and 7.8%; the inhibition (%) at 0.25 mg/ml is 30.6% and 18.6%; the inhibition (%) at 0.5 mg/ml is 42.5% and 31.3%; the inhibition (%) at 1 mg/ml was 45.7% and 49.2%. Besides, the inhibition (%) at 2 mg/ml is 59.6% and 49.2%.
Take Ovomucin/PEM hydrolysate: the inhibition (%) at 0.0625 mg/ml is 25.9% and 5.5%; the inhibition (%) at 0.125 mg/ml is 13.3% and 9.1%; the inhibition (%) at 0.25 mg/ml is 41.1% and 19.6% and 36.1%; the inhibition (%) at 0.5 mg/ml was 66.3% and 43.1% and 48.6%. Moreover, the inhibition (%) at 1 mg/ml was 51.3% and 62.3% and 66%; the inhibition (%) at 2 mg/ml was 73.1% and 78.1% and 88%.
With Ovomucin/PTN hydrolysate, the ACE inhibition (% inhibition) at 0.5 mg/ml is 50% and 55% and 45%; the inhibition (%) at 0.125 mg/ml was 19.7% and 16.9%; the inhibition (%) at 0.25 mg/ml was 43.8% and 21%; the inhibition (%) at 0.5 mg/ml is 55.3% and 44.7%. In addition, the inhibition (%) at 1 mg/ml was 65.5% and 50.9%.
As for Ovomucin/Protex 6L hydrolysate, the ACE inhibition (% inhibition) at 0.5 mg/ml is 59% and 69% and 49%; the inhibition (%) at 0.0625 mg/ml was 24.9% and 5.1%; the inhibition (%) at 0.125 mg/ml is 31.4% and 16.3%; the inhibition (%) at 0.25 mg/ml is 47.8% and 30.5%. Moreover, the inhibition (%) at 0.5 mg/ml was 68.5% and 49%; the inhibition (%) at 1 mg/ml was 87.6% and 65%; the inhibition (%) at 2 mg/ml is 90.8% and 65.8%.
Consider “Ovotransferrin (TRFE_CHICK), not hydrolysed and not digested (from UniProt P02789 20-705)”, for which the ACE inhibition (%) at 0.019 mg/ml, Hip-His-Leu/TNBS microtiter assay was found to be 0.7%; the ACE inhibition (%) at 0.056 mg/ml, Hip-His-Leu/TNBS microtiter assay is -4.1%; the ACE inhibition (%) at 0.167 mg/ml, Hip-His-Leu/TNBS microtiter assay worked out at 0.7%; the ACE inhibition (%) at 0.500 mg/ml, Hip-His-Leu/TNBS microtiter assay is -0.3%.
With Ovotransferrin/Newlase F hydrolysate, the ACE inhibition (% inhibition) at 0.5 mg/ml is 70% and 71% and 69%; the inhibition (%) at 0.0625 mg/ml was 26.9% and 28.7%; the inhibition (%) at 0.125 mg/ml was 33.7% and 50.9%; the inhibition (%) at 0.25 mg/ml was 58.6% and 51.6%. Besides, the inhibition (%) at 0.5 mg/ml is 70.5% and 69.1%; the inhibition (%) at 1 mg/ml was 96.1% and 83.1%; the inhibition (%) at 2 mg/ml (*Absorption above 3) is 64.3% and 46.8%.
Regarding Ovotransferrin/PEM hydrolysate, the ACE inhibition (% inhibition) at 0.5 mg/ml was 55% and 52% and 57%; the inhibition (%) at 0.0625 mg/ml is -19.4% and -10.7%; the inhibition (%) at 0.25 mg/ml is 9.8% and 31.8%; the inhibition (%) at 0.5 mg/ml was 52.4% and 56.6%. Moreover, the inhibition (%) at 1 mg/ml is 69.1% and 73.8%.
Take Ovotransferrin/PTN hydrolysate: the ACE inhibition (% inhibition) at 0.5 mg/ml was 64% and 68% and 60%; the inhibition (%) at 0.125 mg/ml is 28.3% and 37.9%; the inhibition (%) at 0.25 mg/ml was 51% and 49.8%; the inhibition (%) at 0.5 mg/ml is 67.8% and 59.9%. Besides, the inhibition (%) at 1 mg/ml was 80.3% and 84.3%.
Ovotransferrin/Promod 258P hydrolysate: the ACE inhibition (% inhibition) at 0.5 mg/ml was 62% and 58% and 66%; the inhibition (%) at 0.0625 mg/ml is 18.4% and -1%; the inhibition (%) at 0.125 mg/ml was 40% and 18.8%; the inhibition (%) at 0.25 mg/ml was 41.1% and 45.1%. Further, the inhibition (%) at 0.5 mg/ml is 57.7% and 66.3%; the inhibition (%) at 1 mg/ml is 85.2% and 86.2%; the inhibition (%) at 2 mg/ml was 121% and 104%.
Consider Ovotransferrin/Protex 6L hydrolysate, for which the ACE inhibition (% inhibition) at 0.5 mg/ml is 59% and 60%; the inhibition (%) at 0.0625 mg/ml was 13.7% and 12%; the inhibition (%) at 0.125 mg/ml is 30.6% and 19.1%; the inhibition (%) at 0.25 mg/ml is 44.4% and 34.4%. Further, the inhibition (%) at 0.5 mg/ml was 60.2% and 58.6%; the inhibition (%) at 1 mg/ml is 76.8% and 70.2%; the inhibition (%) at 2 mg/ml was 97.3% and 88%.

The record behind these values is patent US20090029005A1.
